From patent publication CN110872347A (TIANJIN TIMMUNE BIOTECH INC, dated 2020) come the findings set out here.

The assay concerns the target HLA-A2/…抗原复合物 (human). In words: SPR, Biacore T200, antigen on SA chip, Fc fusion as analyte 1-20 nM, Bivalent Analyte model. A general note: SPR reads the build-up and loss of mass on a sensor chip optically.

B1: 融合蛋白M3-D9-Fc (Fc fusion, not shown: a dimerising Fc or GST)
chain: VQLVETGGGLVQPGGSLRLSCAASGFTFSDYAIQWVRQAPGKGLGRVSYINSGGDTTYYADSVKGRFSIARDNAKNTVYLQMNSLKPEDTAVYYCYAGGYWGQGTQVTVSS
Take B1: the Kd was 25 nM; the off-rate (koff) (usually the rate constant with which the complex falls apart) is 0.0171 s⁻¹; the kon (in general, a measure of how fast the partners come together) worked out at 678000 M⁻¹ s⁻¹.

B2: 融合蛋白M3-E7-Fc (Fc fusion, not shown: a dimerising Fc or GST)
chain: VQLVASGGGLVPPGGSLRLSCAASGRTFNVDAMAWFRQTRGKEREFVAAISRSGGSTYYADSVKGRFSISKDNAKNTMYLQMNSLKPEDTAIYYCAAAIYWRGSYYTEGNYDYWGQRTQVTVSS
Turning to B2, the Kd was 9 nM, the dissociation rate constant (koff) turned out to be 0.0309 s⁻¹ and the kon is 3.43e+06 M⁻¹ s⁻¹.
